Test results from US20240239864A1 (US Dept. of Health and Human Services, published 2024).

Target: T1, HLA-A*02:01 CD22 p228-236 tetramer (human)
T1 construct: Bought monomer, loaded by UV peptide exchange and made into a tetramer; The streptavidin and label are not described; also called p-MHC tetramer
Experiment: p-MHC tetramer staining of T cells of co-culture well D146W8, flow cytometry

binding result: binds
B1: TCR clone D146W8 (native clone on the T cells of co-culture well D146W8) (TCR, V domains shown)
V domain 1: QKEVEQNSGPLSVPEGAIASLNCTYSDRGSQSFFWYRQYSGKSPELIMFIYSNGDKEDGRFTAQLNKASQYVSLLIRDSQPSDSATYLCAVKGAGGFKTIFGAGTRLFVKA
V domain 2: DTGVSQNPRHKITKRGQNVTFRCDPISEHNRLYWYRQTLGQGPEFLTYFQNEAQLEKSRLLSDRFSAERPKGSFSTLEIQRTEQGDSAMYLCASSPGNTEAFFGQGTRLTVV
notes: also called D146W8 TCR; not shown: constant region of the native human clone
